How the values were obtained:
[1] = target: Helicobacter pylori GluRS2 (non-canonical glutamyl-tRNA synthetase 2) (Helicobacter pylori) (UniProt O25360); experiment: nanopore optical interferometry
[2] = target: Helicobacter pylori GluRS2 (non-canonical glutamyl-tRNA synthetase 2) (Helicobacter pylori) (UniProt O25360); experiment: dynamic light scattering
[3] = target: the molecule itself; experiment: nanopore optical interferometry

Molecule “Helicobacter pylori GatCAB (tRNA-dependent amidotransferase) (complex)” has an average optical path difference at plateau, 0.5 µM GatCAB [1] of 0.6 nm, an average optical path difference at plateau, 2 µM GatCAB [1] of 2.2 nm and an average optical path difference at plateau, 5 µM GatCAB [1] of 5.4 nm. The average optical path difference at plateau, 10 µM GatCAB [1] was 10.4 nm, the average optical path difference at plateau, 19 µM GatCAB [1] was 16.2 nm and the stoichiometry N [2] was 1.

B1: Helicobacter pylori GluRS2 (non-canonical glutamyl-tRNA synthetase 2) (enzyme, UniProt O25360 1-439, looked up)
chain: MLRFAPSPTGDMHIGNLRAAIFNYIVAKQQYKPFLIRIEDTDKERNIEGKDQEILEILKLMGISWDKLVYQSHNIDYHREMAEKLLKENKAFYCYASAEFLEREKEKAKNEKRPFRYSDEWATLEKDKHHAPVVRLKAPNHAVSFNDAIKKEVKFEPDELDSFVLLRQDKSPTYNFACACDDLLYKISLIIRGEDHVSNTPKQILIQQALGSNDPIVYAHLPIILDEVSGKKMSKRDEASSVKWLLNQGFLPVAIANYLITIGNKVPKEVFSLDEAIEWFSLENLSSSPAHFNLKYLKHLNHEHLKLLDDDKLLELTSIKDKNLLGLLRLFIEECGTLLELREKISLFLEPKDIVKTYENEDFKERCLALFNALTSMDFQAYKDFESFKKEAMRLSQLKGKDFFKPLRILLTGNSHGVELPLIFPYIQSHHQEVLRLKA
B1: binds [3].

Source: article PMC3241645 (Nucleic Acids Research, 2011)
